Data on one substance can be found in paper PMC3286832.

The experiment deals with G9a or GLP catalytic SET domains. Description: ITC.

One may read the Kd as the constant that tells how readily two partners part at equilibrium. Low values mean higher affinity, high ones lower affinity. For the substance mDnmt3a(39–50)K44me0 peptide, the Kd is 4 to 6 µM.
